These results are taken from patent publication US20130336893A1 (Sanofi, published 2013).

*1 amine or outer side, *2 acyl side, *3 side chain or, on linkers, in order; H or OH if unused. Where no end group is shown, it is not given here. Side-chain parts run from the residue outwards. [ ]: non-standard residue; d: D form. The star is where a group is joined. γGlu = O=C(O)[C@H](CCC(=O)[*:2])N[*:1]; Palmitoyl = CCCCCCCCCCCCCCCC(=O)*; Aib = CC(C)(N)C(=O)O

The target of one test is human GLP-1 receptor (human, UniProt P43220 24-463). Put plainly: cell-based or functional assay.
In another test the target is human glucagon receptor (human, UniProt P47871 26-477). As to the kind of experiment: cell-based or functional assay.
human glucagon receptor, sequence (P47871 26-477): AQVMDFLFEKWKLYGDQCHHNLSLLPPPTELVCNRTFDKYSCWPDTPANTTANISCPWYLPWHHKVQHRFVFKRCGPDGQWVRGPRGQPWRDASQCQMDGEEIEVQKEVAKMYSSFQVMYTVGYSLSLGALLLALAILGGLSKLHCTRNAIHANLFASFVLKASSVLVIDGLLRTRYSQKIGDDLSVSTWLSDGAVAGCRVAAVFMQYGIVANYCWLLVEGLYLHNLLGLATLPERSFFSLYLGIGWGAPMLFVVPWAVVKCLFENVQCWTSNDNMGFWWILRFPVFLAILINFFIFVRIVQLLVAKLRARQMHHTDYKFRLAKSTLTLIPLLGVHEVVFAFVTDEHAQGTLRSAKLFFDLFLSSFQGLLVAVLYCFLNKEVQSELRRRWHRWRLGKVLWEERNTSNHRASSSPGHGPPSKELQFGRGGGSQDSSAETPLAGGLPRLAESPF

B1: SEQ ID NO: (69) (peptide)
peptide: H[dS]QGTFTSDLSKQMDKRRAQDFIEWLKNGGPSSGAPPPSK([γGlu-Palmitoyl])-NH2
modifications: N-terminus assumed
SMILES: CCCCCCCCCCCCCCCC(=O)N[C@@H](CCC(=O)NCCCC[C@H](NC(=O)[C@H](CO)NC(=O)[C@@H]1CCCN1C(=O)[C@@H]1CCCN1C(=O)[C@@H]1CCCN1C(=O)[C@H](C)NC(=O)CNC(=O)[C@H](CO)NC(=O)[C@H](CO)NC(=O)[C@@H]1CCCN1C(=O)CNC(=O)CNC(=O)[C@H](CC(N)=O)NC(=O)[C@H](CCCCN)NC(=O)[C@H](CC(C)C)NC(=O)[C@H](Cc1c[nH]c2ccccc12)NC(=O)[C@H](CCC(=O)O)NC(=O)[C@@H](NC(=O)[C@H](Cc1ccccc1)NC(=O)[C@H](CC(=O)O)NC(=O)[C@H](CCC(N)=O)NC(=O)[C@H](C)NC(=O)[C@H](CCCNC(=N)N)NC(=O)[C@H](CCCNC(=N)N)NC(=O)[C@H](CCCCN)NC(=O)[C@H](CC(=O)O)NC(=O)[C@H](CCSC)NC(=O)[C@H](CCC(N)=O)NC(=O)[C@H](CCCCN)NC(=O)[C@H](CO)NC(=O)[C@H](CC(C)C)NC(=O)[C@H](CC(=O)O)NC(=O)[C@H](CO)NC(=O)[C@@H](NC(=O)[C@H](Cc1ccccc1)NC(=O)[C@@H](NC(=O)CNC(=O)[C@H](CCC(N)=O)NC(=O)[C@@H](CO)NC(=O)[C@@H](N)Cc1c[nH]cn1)[C@@H](C)O)[C@@H](C)O)[C@@H](C)CC)C(N)=O)C(=O)O
As for B1, the “EC50 hGLP-1R (cAMP formation)” value with human GLP-1 receptor stood at 7.6 pM. In addition, the “EC50 hGlucagonR (cAMP formation)” value with human glucagon receptor was 5.9 pM.

Take H[dS]QGTFTSDLSKQMESRRAQDFIEWLK[Aib]GGPSSGAPPPSK([γGlu-Palmitoyl])-NH2 [SEQ ID NO: (73)]: in the test with human GLP-1 receptor, the “EC50 hGLP-1R (cAMP formation)” value came out at 4.4 pM. Also, the “EC50 hGlucagonR (cAMP formation)” value with human glucagon receptor was found to be 21.2 pM.

B2: SEQ ID NO: (76) (peptide)
peptide: H[dS]QGTFTSDLSKQMESRRAQDFIEWLKR[dA]GPSSGAPPPSK([γGlu-Palmitoyl])-NH2
modifications: N-terminus assumed
SMILES: CCCCCCCCCCCCCCCC(=O)N[C@@H](CCC(=O)NCCCC[C@H](NC(=O)[C@H](CO)NC(=O)[C@@H]1CCCN1C(=O)[C@@H]1CCCN1C(=O)[C@@H]1CCCN1C(=O)[C@H](C)NC(=O)CNC(=O)[C@H](CO)NC(=O)[C@H](CO)NC(=O)[C@@H]1CCCN1C(=O)CNC(=O)[C@@H](C)NC(=O)[C@H](CCCNC(=N)N)NC(=O)[C@H](CCCCN)NC(=O)[C@H](CC(C)C)NC(=O)[C@H](Cc1c[nH]c2ccccc12)NC(=O)[C@H](CCC(=O)O)NC(=O)[C@@H](NC(=O)[C@H](Cc1ccccc1)NC(=O)[C@H](CC(=O)O)NC(=O)[C@H](CCC(N)=O)NC(=O)[C@H](C)NC(=O)[C@H](CCCNC(=N)N)NC(=O)[C@H](CCCNC(=N)N)NC(=O)[C@H](CO)NC(=O)[C@H](CCC(=O)O)NC(=O)[C@H](CCSC)NC(=O)[C@H](CCC(N)=O)NC(=O)[C@H](CCCCN)NC(=O)[C@H](CO)NC(=O)[C@H](CC(C)C)NC(=O)[C@H](CC(=O)O)NC(=O)[C@H](CO)NC(=O)[C@@H](NC(=O)[C@H](Cc1ccccc1)NC(=O)[C@@H](NC(=O)CNC(=O)[C@H](CCC(N)=O)NC(=O)[C@@H](CO)NC(=O)[C@@H](N)Cc1c[nH]cn1)[C@@H](C)O)[C@@H](C)O)[C@@H](C)CC)C(N)=O)C(=O)O
On to B2, for which, in the test with human GLP-1 receptor, the “EC50 hGLP-1R (cAMP formation)” value came to 4.8 pM. Also, in the test with human glucagon receptor, the “EC50 hGlucagonR (cAMP formation)” value turned out to be 74.1 pM.

B3: SEQ ID NO: (74) (peptide)
peptide: H[dS]QGTFTSDLSKQMESRRAQDFIEWLKNTGPSSGAPPPSK([γGlu-Palmitoyl])-NH2
modifications: N-terminus assumed
SMILES: CCCCCCCCCCCCCCCC(=O)N[C@@H](CCC(=O)NCCCC[C@H](NC(=O)[C@H](CO)NC(=O)[C@@H]1CCCN1C(=O)[C@@H]1CCCN1C(=O)[C@@H]1CCCN1C(=O)[C@H](C)NC(=O)CNC(=O)[C@H](CO)NC(=O)[C@H](CO)NC(=O)[C@@H]1CCCN1C(=O)CNC(=O)[C@@H](NC(=O)[C@H](CC(N)=O)NC(=O)[C@H](CCCCN)NC(=O)[C@H](CC(C)C)NC(=O)[C@H](Cc1c[nH]c2ccccc12)NC(=O)[C@H](CCC(=O)O)NC(=O)[C@@H](NC(=O)[C@H](Cc1ccccc1)NC(=O)[C@H](CC(=O)O)NC(=O)[C@H](CCC(N)=O)NC(=O)[C@H](C)NC(=O)[C@H](CCCNC(=N)N)NC(=O)[C@H](CCCNC(=N)N)NC(=O)[C@H](CO)NC(=O)[C@H](CCC(=O)O)NC(=O)[C@H](CCSC)NC(=O)[C@H](CCC(N)=O)NC(=O)[C@H](CCCCN)NC(=O)[C@H](CO)NC(=O)[C@H](CC(C)C)NC(=O)[C@H](CC(=O)O)NC(=O)[C@H](CO)NC(=O)[C@@H](NC(=O)[C@H](Cc1ccccc1)NC(=O)[C@@H](NC(=O)CNC(=O)[C@H](CCC(N)=O)NC(=O)[C@@H](CO)NC(=O)[C@@H](N)Cc1c[nH]cn1)[C@@H](C)O)[C@@H](C)O)[C@@H](C)CC)[C@@H](C)O)C(N)=O)C(=O)O
In the case of B3, the “EC50 hGLP-1R (cAMP formation)” value with human GLP-1 receptor is 39.6 pM. Further, the “EC50 hGlucagonR (cAMP formation)” value in the test with human glucagon receptor is 35.5 pM.

B4: SEQ ID NO: (70) (peptide)
peptide: H[dS]QGTFTSDLSKQMDERRAKDFIEWLKNGGPSSGAPPPSK([γGlu-Palmitoyl])-NH2
modifications: N-terminus assumed
SMILES: CCCCCCCCCCCCCCCC(=O)N[C@@H](CCC(=O)NCCCC[C@H](NC(=O)[C@H](CO)NC(=O)[C@@H]1CCCN1C(=O)[C@@H]1CCCN1C(=O)[C@@H]1CCCN1C(=O)[C@H](C)NC(=O)CNC(=O)[C@H](CO)NC(=O)[C@H](CO)NC(=O)[C@@H]1CCCN1C(=O)CNC(=O)CNC(=O)[C@H](CC(N)=O)NC(=O)[C@H](CCCCN)NC(=O)[C@H](CC(C)C)NC(=O)[C@H](Cc1c[nH]c2ccccc12)NC(=O)[C@H](CCC(=O)O)NC(=O)[C@@H](NC(=O)[C@H](Cc1ccccc1)NC(=O)[C@H](CC(=O)O)NC(=O)[C@H](CCCCN)NC(=O)[C@H](C)NC(=O)[C@H](CCCNC(=N)N)NC(=O)[C@H](CCCNC(=N)N)NC(=O)[C@H](CCC(=O)O)NC(=O)[C@H](CC(=O)O)NC(=O)[C@H](CCSC)NC(=O)[C@H](CCC(N)=O)NC(=O)[C@H](CCCCN)NC(=O)[C@H](CO)NC(=O)[C@H](CC(C)C)NC(=O)[C@H](CC(=O)O)NC(=O)[C@H](CO)NC(=O)[C@@H](NC(=O)[C@H](Cc1ccccc1)NC(=O)[C@@H](NC(=O)CNC(=O)[C@H](CCC(N)=O)NC(=O)[C@@H](CO)NC(=O)[C@@H](N)Cc1c[nH]cn1)[C@@H](C)O)[C@@H](C)O)[C@@H](C)CC)C(N)=O)C(=O)O
For the molecule B4, the “EC50 hGLP-1R (cAMP formation)” value with human GLP-1 receptor came to 5 pM. For the same molecule, in the test with human glucagon receptor, the “EC50 hGlucagonR (cAMP formation)” value was 17.2 pM.

B5: SEQ ID NO: (77) (peptide)
peptide: H[dS]QGTFTSDLSKQMESRRAQDFIEWLKKGGPSSGAPPPSK([γGlu-Palmitoyl])-NH2
modifications: N-terminus assumed
SMILES: CCCCCCCCCCCCCCCC(=O)N[C@@H](CCC(=O)NCCCC[C@H](NC(=O)[C@H](CO)NC(=O)[C@@H]1CCCN1C(=O)[C@@H]1CCCN1C(=O)[C@@H]1CCCN1C(=O)[C@H](C)NC(=O)CNC(=O)[C@H](CO)NC(=O)[C@H](CO)NC(=O)[C@@H]1CCCN1C(=O)CNC(=O)CNC(=O)[C@H](CCCCN)NC(=O)[C@H](CCCCN)NC(=O)[C@H](CC(C)C)NC(=O)[C@H](Cc1c[nH]c2ccccc12)NC(=O)[C@H](CCC(=O)O)NC(=O)[C@@H](NC(=O)[C@H](Cc1ccccc1)NC(=O)[C@H](CC(=O)O)NC(=O)[C@H](CCC(N)=O)NC(=O)[C@H](C)NC(=O)[C@H](CCCNC(=N)N)NC(=O)[C@H](CCCNC(=N)N)NC(=O)[C@H](CO)NC(=O)[C@H](CCC(=O)O)NC(=O)[C@H](CCSC)NC(=O)[C@H](CCC(N)=O)NC(=O)[C@H](CCCCN)NC(=O)[C@H](CO)NC(=O)[C@H](CC(C)C)NC(=O)[C@H](CC(=O)O)NC(=O)[C@H](CO)NC(=O)[C@@H](NC(=O)[C@H](Cc1ccccc1)NC(=O)[C@@H](NC(=O)CNC(=O)[C@H](CCC(N)=O)NC(=O)[C@@H](CO)NC(=O)[C@@H](N)Cc1c[nH]cn1)[C@@H](C)O)[C@@H](C)O)[C@@H](C)CC)C(N)=O)C(=O)O
As for B5, in the test with human GLP-1 receptor, the “EC50 hGLP-1R (cAMP formation)” value came to 3 pM. The “EC50 hGlucagonR (cAMP formation)” value in the test with human glucagon receptor was 37.2 pM.

B6: SEQ ID NO: (75) (peptide)
peptide: H[dS]QGTFTSDLSKQMESRRAQDFIEWLKRGGPSSGAPPPSK([γGlu-Palmitoyl])-NH2
modifications: N-terminus assumed
SMILES: CCCCCCCCCCCCCCCC(=O)N[C@@H](CCC(=O)NCCCC[C@H](NC(=O)[C@H](CO)NC(=O)[C@@H]1CCCN1C(=O)[C@@H]1CCCN1C(=O)[C@@H]1CCCN1C(=O)[C@H](C)NC(=O)CNC(=O)[C@H](CO)NC(=O)[C@H](CO)NC(=O)[C@@H]1CCCN1C(=O)CNC(=O)CNC(=O)[C@H](CCCNC(=N)N)NC(=O)[C@H](CCCCN)NC(=O)[C@H](CC(C)C)NC(=O)[C@H](Cc1c[nH]c2ccccc12)NC(=O)[C@H](CCC(=O)O)NC(=O)[C@@H](NC(=O)[C@H](Cc1ccccc1)NC(=O)[C@H](CC(=O)O)NC(=O)[C@H](CCC(N)=O)NC(=O)[C@H](C)NC(=O)[C@H](CCCNC(=N)N)NC(=O)[C@H](CCCNC(=N)N)NC(=O)[C@H](CO)NC(=O)[C@H](CCC(=O)O)NC(=O)[C@H](CCSC)NC(=O)[C@H](CCC(N)=O)NC(=O)[C@H](CCCCN)NC(=O)[C@H](CO)NC(=O)[C@H](CC(C)C)NC(=O)[C@H](CC(=O)O)NC(=O)[C@H](CO)NC(=O)[C@@H](NC(=O)[C@H](Cc1ccccc1)NC(=O)[C@@H](NC(=O)CNC(=O)[C@H](CCC(N)=O)NC(=O)[C@@H](CO)NC(=O)[C@@H](N)Cc1c[nH]cn1)[C@@H](C)O)[C@@H](C)O)[C@@H](C)CC)C(N)=O)C(=O)O
Consider B6, for which the “EC50 hGLP-1R (cAMP formation)” value in the test with human GLP-1 receptor came to 4.6 pM. In addition, the “EC50 hGlucagonR (cAMP formation)” value in the test with human glucagon receptor turned out to be 64.1 pM.
